For 1 molecule, IC50 results are on record in patent CN115521378A (NANJING JISHENG AOMA BIOLOGICAL PHARMACEUTICAL CO LTD, dated 2022).

This assay concerns the target T1, PD-L1蛋白 (human, UniProt Q9NZQ7 19-238, limits assumed).
T1 construct: also called 人PD-L1蛋白; CD274
The experiment in a line: competition ELISA: PD-L1 coated, biotinylated PD-1 at 1 ug/mL as competitor, HRP-streptavidin read-out. (In general: ELISA stands for enzyme-linked immunosorbent assay.)

T1 sequence (Q9NZQ7 19-238 limits assumed): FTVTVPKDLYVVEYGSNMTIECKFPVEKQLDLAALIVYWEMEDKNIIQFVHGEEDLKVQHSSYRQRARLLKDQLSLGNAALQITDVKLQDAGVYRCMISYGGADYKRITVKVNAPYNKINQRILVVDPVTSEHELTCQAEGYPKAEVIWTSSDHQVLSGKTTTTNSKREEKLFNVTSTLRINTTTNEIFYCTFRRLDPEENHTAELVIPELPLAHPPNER

B1: 13H6D3 (antibody, V domains shown)
VH: QVQLQQPGADLVKPGASVKLSCKASGYTFTSNWMHWMKQRPGQGLDWIGMIHPNSAIKYNEKFKSRASLTADKSSSTAYMQLSSLTSEDSAVYYCARSYYGSSPYFFDYWGQGTTLTVSS
VL: DIQMTQTTSSLSASLGDRVTISCRASQDISKYLNWYQQKPDGTVKFLIYYTSRLHSGVPARFSGSGSGTDYFLTISNLEQEDVATYFCQQGDTLPWTFGGGTKLEIK
notes: Only variable domains are tied to the name; also called 克隆 13H6D3
Broadly, the IC50 is the concentration that gives 50% inhibition. Consider B1, for which the IC50 is 1.23 nM.
